From PMC11532496

B1: DH270 lineage intermediate I5.6 Fab (Fab, V domains shown)
VH: QVQLVQSGAEVKKPGASVKVSCKASGYTFTDYYIHWVRQAPGQGLEWMGWINPNTGRTNSAQKFQGRVTMTRDTSISTAYMELSRLRSDDTAVYYCARGGWIGLYYDSSGYPNFDYWGQGTLVTVSS
VL: QSALTQPASVSGSPGQSITISCTGTSYDVGSYNLVSWYQQHPGKAPKLMIYEVSKRPSGVSNRFSGSKSGNTASLTISGLQAEDEADYYCCSYAGSSTVVFGGGTKLTVL

Key:
[1] = biological target: non-stabilized CE1 design Env SOSIP trimer (CH505.M5.G458Y N386R without F14 and 2P) (HIV-1) (UniProt Q2N0S6); assay: SPR
[2] = biological target: CH848-d949 DE3 design Env SOSIP trimer (N408K/N442A) (HIV-1); assay: SPR

Molecule	fold change of ka against CH505.M5.G458Y [1]	fold change of ka against the unmutated CH848-d949 trimer [2]
CH235.12 Fab	2 fold	
B1		45 fold
